Tests used:
[1] = molecular target: T1, mouse Mp1 expressed on CHO cells (CHO-mouse Mp1) (mouse, UniProt Q08351 26-625); test: flow cytometry on CHO cells expressing Mp1
T1 construct: whole, on cells; also called mouse Mp1-expressing CHO cell line
T1 sequence (looked up): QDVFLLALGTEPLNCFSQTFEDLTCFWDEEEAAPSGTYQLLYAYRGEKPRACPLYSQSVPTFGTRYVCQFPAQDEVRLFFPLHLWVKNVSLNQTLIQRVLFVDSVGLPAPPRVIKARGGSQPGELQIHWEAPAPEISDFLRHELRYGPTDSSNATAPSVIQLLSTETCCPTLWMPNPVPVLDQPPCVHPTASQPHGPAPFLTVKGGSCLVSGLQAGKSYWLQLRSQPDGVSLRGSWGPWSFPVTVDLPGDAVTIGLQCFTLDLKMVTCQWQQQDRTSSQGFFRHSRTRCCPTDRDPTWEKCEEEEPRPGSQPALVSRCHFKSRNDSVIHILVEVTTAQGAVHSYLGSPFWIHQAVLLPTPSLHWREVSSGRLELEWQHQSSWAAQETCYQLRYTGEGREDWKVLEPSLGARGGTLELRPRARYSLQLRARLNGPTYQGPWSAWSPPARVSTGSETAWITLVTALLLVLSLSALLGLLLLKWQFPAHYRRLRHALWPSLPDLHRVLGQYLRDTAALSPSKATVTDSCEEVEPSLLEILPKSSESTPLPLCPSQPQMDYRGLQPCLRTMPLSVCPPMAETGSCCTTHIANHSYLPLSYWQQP

[2] = molecular target: T2, cynomolgus monkey Mp1 expressed on CHO cells (CHO-monkey Mp1) (cynomolgus monkey, UniProt P40238 26-635 (human entry)); test: flow cytometry on CHO cells expressing Mp1
T2 construct: also called monkey Mp1-expressing CHO cell line
T2 chain: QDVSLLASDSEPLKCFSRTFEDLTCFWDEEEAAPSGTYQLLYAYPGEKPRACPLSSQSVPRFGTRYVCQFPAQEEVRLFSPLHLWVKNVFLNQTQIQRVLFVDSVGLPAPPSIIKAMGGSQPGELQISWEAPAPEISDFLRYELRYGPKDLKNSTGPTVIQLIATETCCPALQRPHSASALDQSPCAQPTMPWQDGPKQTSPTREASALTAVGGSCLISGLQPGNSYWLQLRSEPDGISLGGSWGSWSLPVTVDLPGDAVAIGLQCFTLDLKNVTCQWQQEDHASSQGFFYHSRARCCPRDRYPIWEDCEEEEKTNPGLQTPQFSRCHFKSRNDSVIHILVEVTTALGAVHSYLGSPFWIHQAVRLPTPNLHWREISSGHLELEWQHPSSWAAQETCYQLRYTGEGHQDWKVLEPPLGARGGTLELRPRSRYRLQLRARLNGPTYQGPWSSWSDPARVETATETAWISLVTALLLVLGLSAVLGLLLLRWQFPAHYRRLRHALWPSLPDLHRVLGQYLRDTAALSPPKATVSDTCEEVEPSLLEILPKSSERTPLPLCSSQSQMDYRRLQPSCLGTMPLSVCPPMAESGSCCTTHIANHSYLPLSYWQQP

[3] = molecular target: T3, human Mp1-IgG Fc fusion protein (human, UniProt P40238 26-491); test: SPR (Biacore 2000), hMp1-Fc amine-coupled to CM5 chip, VB22B IgG injected at 1.25 to 20 ug/mL
T3 construct: range 26-491; Expressed in CHO-DG44 with a 19-amino acid signal peptide from a human IgG H chain variable region, left out here; also called hMp1-Fc; hMPL-Fc; not shown: Fc region of human IgG-gamma1 (a region downstream of Asp 216)
T3 sequence: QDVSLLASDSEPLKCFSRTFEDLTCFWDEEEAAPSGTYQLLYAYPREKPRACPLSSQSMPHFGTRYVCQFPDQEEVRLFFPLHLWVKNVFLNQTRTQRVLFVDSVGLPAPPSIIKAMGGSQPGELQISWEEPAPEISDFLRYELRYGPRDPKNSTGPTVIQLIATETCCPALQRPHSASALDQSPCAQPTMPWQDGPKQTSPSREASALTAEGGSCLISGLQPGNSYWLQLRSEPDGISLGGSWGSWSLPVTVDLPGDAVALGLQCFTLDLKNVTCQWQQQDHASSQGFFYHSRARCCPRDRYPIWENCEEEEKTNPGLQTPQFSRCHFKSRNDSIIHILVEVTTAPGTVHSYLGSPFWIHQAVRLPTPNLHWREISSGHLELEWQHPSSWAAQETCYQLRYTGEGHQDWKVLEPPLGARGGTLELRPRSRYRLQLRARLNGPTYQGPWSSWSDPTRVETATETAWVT
Experimental: Since the anti-human Mp1 antibody VB22B binds to soluble recombinant Mp1, kinetic analyses of the antigen-antibody reaction between VB22B IgG and human Mp1-IgG Fc fusion protein were carried out as described in Example 1.4. The Sensor Chip CM5 (Biacore) was placed in Biacore 2000 (Biacore), and human Mp1-IgG Fc fusion protein was immobilized onto the chip by amine-coupling methods. Then, 1.25 to 20 μg/mL of VB22B IgG solution was prepared using HBS-EP Buffer (Biacore), and injected over the chip surface for 2 min to reveal the binding region. Then, HBS-EP Buffer was injected over the chip surface for 2 min to reveal the dissociation region. VB22B IgG bound to the human Mp1-IgG Fc fusion protein on the sensor chip was removed by injecting 10 mM NaOH over the sensor chip for 15 sec, and the chip was recovered. HBS-EP Buffer was used as the running buffer, and the flow rate was 20 μL/min. Using the BIAevaluation Version 3.1 (Biacore) software, the reaction rate constant at each concentration was calculated from the sensorgrams.

[4] = molecular target: T4, GST fusion protein containing MG4 (Gln26 to Pro106) of human Mp1 (human, UniProt P40238 26-106); test: Western blotting of GST fusion proteins
T4 construct: range 26-106; not shown: glutathione S-transferase (GST) encoded by vector pGEX-4T-3 (Amersham Biosciences)
T4 sequence (looked up): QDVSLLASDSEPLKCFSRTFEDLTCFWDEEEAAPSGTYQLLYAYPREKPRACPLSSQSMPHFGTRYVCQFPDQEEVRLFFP
Experimental: (§1) Since the anti-human Mp1 antibody VB22B can be used for Western blotting, a GST-fusion protein containing a partial sequence of human Mp1 was constructed for VB22B epitope analysis. MG1 (Gln26 to Trp491) and MG2 (Gln26 to Leu274) regions were each amplified by PCR, and cloned into pGEX-4T-3 (Amersham Biosciences) to be expressed as GST fusion proteins. The resulting plasmid DNAs were transformed into DH5α to give transformants. A final concentration of 1 mM IPTG was added to the transformants in their logarithmic growth phase to induce the expression of GST fusion proteins. The bacterial cells were harvested after two hours of incubation. The cells were lysed by sonication. The lysates were centrifuged in XL-80 Ultracentrifuge (Beckman, Rotor 70.1Ti) at 35,000 rpm for 30 min. The culture supernatants were removed, and then the fusion proteins were purified using GST Purification Modules (Amersham Biosciences). The samples were separated by 10%-SDS-PAGE, and then transferred onto a PVDF membrane. The membrane was analyzed by the murine antibody VB22B in Western blotting.
(§2) Then, GST fusion proteins containing the respective regions of human Mp1: MG3 (Gln26 to Ala189), MG4 (Gln26 to Pro106), MG5 (Gln26 to Glu259), and MG6 (Gln26 to Gly245) were prepared and analyzed by Western blotting using the same procedure described above. […] In addition, GST was fused with MG7 (Gln26 to Ala231) and MG8 (Gln26 to Pro217) to prepare GST fusion proteins.

[5] = molecular target: T5, GST fusion protein containing MG3 (Gln26 to Ala189) of human Mp1 (human, UniProt P40238 26-189); test: Western blotting of GST fusion proteins
T5 construct: range 26-189; not shown: glutathione S-transferase (GST) encoded by vector pGEX-4T-3 (Amersham Biosciences)
T5 sequence (looked up): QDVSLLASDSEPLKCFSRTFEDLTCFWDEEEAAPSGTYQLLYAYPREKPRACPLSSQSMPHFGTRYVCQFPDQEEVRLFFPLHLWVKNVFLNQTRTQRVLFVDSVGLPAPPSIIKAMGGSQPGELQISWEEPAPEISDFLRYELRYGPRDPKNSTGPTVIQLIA
Experimental: as §1, §2

[6] = molecular target: T6, GST fusion protein containing MG8 (Gln26 to Pro217) of human Mp1 (human, UniProt P40238 26-217); test: Western blotting of GST fusion proteins
T6 construct: range 26-217; not shown: glutathione S-transferase (GST) encoded by vector pGEX-4T-3 (Amersham Biosciences)
T6 sequence (looked up): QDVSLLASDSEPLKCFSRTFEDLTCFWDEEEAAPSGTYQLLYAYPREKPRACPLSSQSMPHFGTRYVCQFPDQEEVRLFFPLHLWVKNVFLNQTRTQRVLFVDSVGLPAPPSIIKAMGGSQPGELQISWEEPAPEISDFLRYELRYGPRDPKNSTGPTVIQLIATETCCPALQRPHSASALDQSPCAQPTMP
Experimental: as §1, §2

[7] = molecular target: T7, human Mp1 expressed on CHO cells (CHO-human Mp1) (human, UniProt P40238 26-635); test: flow cytometry on CHO cells expressing Mp1, detection with anti-FLAG M2 and FITC anti-mouse IgG
T7 construct: whole, on cells; also called human Mp1-expressing CHO cell line
T7 sequence (looked up): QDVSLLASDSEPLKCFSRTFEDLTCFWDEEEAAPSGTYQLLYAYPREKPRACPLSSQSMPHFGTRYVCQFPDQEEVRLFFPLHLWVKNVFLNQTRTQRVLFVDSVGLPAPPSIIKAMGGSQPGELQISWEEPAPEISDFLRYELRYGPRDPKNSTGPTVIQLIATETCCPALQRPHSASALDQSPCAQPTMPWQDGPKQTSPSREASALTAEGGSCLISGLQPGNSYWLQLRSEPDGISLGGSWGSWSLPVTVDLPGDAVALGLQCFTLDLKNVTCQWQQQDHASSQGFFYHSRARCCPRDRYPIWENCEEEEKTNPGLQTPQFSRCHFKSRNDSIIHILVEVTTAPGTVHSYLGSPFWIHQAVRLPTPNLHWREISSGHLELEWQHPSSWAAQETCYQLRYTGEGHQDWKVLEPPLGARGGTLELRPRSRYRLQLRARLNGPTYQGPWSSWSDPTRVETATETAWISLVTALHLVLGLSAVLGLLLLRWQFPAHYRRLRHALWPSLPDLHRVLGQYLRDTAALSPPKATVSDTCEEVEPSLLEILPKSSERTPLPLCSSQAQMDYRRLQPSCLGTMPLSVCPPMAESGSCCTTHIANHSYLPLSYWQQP
Experimental: (§3) CHO-human Mp1, CHO-monkey Mp1, and CHO-mouse Mp1 cells were recovered and suspended in FACS buffer (1% FBS/PBS) to a final concentration of 1×10⁶ cells/mL. Cell suspensions were aliquoted at 100-μL/well into the Multiscreen-HV Filter Plates (Millipore). After centrifugation, the supernatant was removed. An appropriate concentration of diabody or sc(Fv)2 was added into each well and incubated on ice for 30 min. The cells were washed once with 200 μL of FACS buffer, and incubated on ice for 30 min following the addition of 10 μg/mL ANTI-FLAG® M2 Monoclonal Antibody (Sigma-Aldrich). The cells were then washed once with 200 μL of FACS buffer, and a 100×-diluted FITC-labeled anti-mouse IgG antibody (Beckman Coulter) was added to the plate. The plate was incubated on ice for 30 min. After centrifugation, the supernatant was removed. The cells were suspended in 400 μL of FACS Buffer, and then analyzed by flow cytometry using EPICS ELITE ESP (Beckman Coulter). An analysis gate was set on the forward and side scatters of a histogram to include viable cell populations.
(§4) The binding activity of the purified VB22B sc(Fv)2 to various Mp1 molecules expressed in CHO cells was determined.

[8] = molecular target: T2, cynomolgus monkey Mp1 expressed on CHO …; test: as above
Experimental: as §3, §4

B1: anti-human Mp1 antibody VB22B (VB22B IgG) (antibody, V domains shown)
VH: QVQLQQSGPELVKPGASVKISCKASGYAFTNSWMNWVKQRPGKGLEWIGRIYPGDGETIYNGKFRVKATLTADKSSSTAYMDISSLTSEDSAVYFCARGYDDYSFAYWGQGTLVTVSA
VL: DIVMTQAAPSIPVTPGESVSISCRSSKSLLHSNGNTYLYWFLQRPGQSPQLLIYRMSNLASGVPDRFSGSGSGTAFTLRISRVEAEDVGVYYCMQHIEYPFTFGSGTKLEIK
notes: Mouse monoclonal IgG purified from hybridoma supernatant; They were cloned with primers complementary to the mouse IgG2b and kappa constant regions; also called murine antibody VB22B
With B1 the binding result [1] was “no binding”, the binding result [2] was “binds” and the Kd [3] was 1.67 nM. B1: no binding [4]; no binding [5]; no binding [6].

B2: Murine VB22B sc(Fv)2 (scFv)
scFv: QVQLQQSGPELVKPGASVKISCKASGYAFTNSWMNWVKQRPGKGLEWIGRIYPGDGETIYNGKFRVKATLTADKSSSTAYMDISSLTSEDSAVYFCARGYDDYSFAYWGQGTLVTVSAGGGGSGGGGSGGGGSDIVMTQAAPSIPVTPGESVSISCRSSKSLLHSNGNTYLYWFLQRPGQSPQLLIYRMSNLASGVPDRFSGSGSGTAFTLRISRVEAEDVGVYYCMQHIEYPFTFGSGTKLEIKGGGGSGGGGSGGGGSQVQLQQSGPELVKPGASVKISCKASGYAFTNSWMNWVKQRPGKGLEWIGRIYPGDGETIYNGKFRVKATLTADKSSSTAYMDISSLTSEDSAVYFCARGYDDYSFAYWGQGTLVTVSAGGGGSGGGGSGGGGSDIVMTQAAPSIPVTPGESVSISCRSSKSLLHSNGNTYLYWFLQRPGQSPQLLIYRMSNLASGVPDRFSGSGSGTAFTLRISRVEAEDVGVYYCMQHIEYPFTFGSGTKLEIK
notes: Single chain sc(Fv)2, VH-(Gly4Ser)3-VL-(Gly4Ser)3-VH-(Gly4Ser)3-VL, with a FLAG tag (detected with anti-FLAG M2); also called mVB22B
B2: no binding [1]; binds [7]; binds [8].

— patent US20090117097A1 (Chugai, published 2009)
